How the values were obtained:
human DLL4-Fc = human DLL4-Fc (Homo sapiens, UniProt Q9NR61); assay: Biacore binding affinity (KD) to human DLL4; details: ratio of KD values
Experimental: The KDs of parental antibodies anti-VEGF 219R45 (IgG format), anti-DLL4 21R79 (IgG format), anti-DLL4 21M18 (IgG format) and bispecific antibodies 219R45-MB-21M18 and 219R45-MB-21R79 were determined using a Biacore 2000 system from Biacore LifeSciences (GE Healthcare). Recombinant human DLL4-Fc or mouse DLL4-Fc proteins were immobilized on CM5 carboxyl chips using standard amine-based chemistry (NHS/EDC) and blocked with ethanolamine. Recombinant human VEGF165 or mouse VEGF165 were biotinylated and immobilized on streptavidin chips. The antibodies were serially diluted 2-fold from 100 nM to 0.78 nM in HBS-P (0.01M HEPES pH7.4, 0.15M NaCl, 0.005% v/v Polysorbate 20). For each antibody, all 8 dilutions were sequentially injected over a specific chip. Kinetic data were collected over time and were fit using the simultaneous global fit equation to yield affinity constants (KD values) for each bispecific antibody.
Several additional anti-DLL4 antibodies were identified that had binding affinities intermediate to the KDs of 21M18 and 21R79. Two of these anti-DLL4 antibodies were used to produce anti-VEGF/anti-DLL4 bispecific antibodies 219R45-MB-21R75 and 219R45-MB-21R83. Using the Biacore 2000 system as described above, the KDs of the bispecific antibodies 219R45-MB-21R75 and 219R45-MB-21R83 to human DLL4 were determined.

[1] = Non-GLP toxicity study in cynomolgus monkeys; format: in vivo; details: after 15 weeks
Experimental: A non-GLP toxicity study in cynomolgus monkeys was initiated to evaluate and compare the toxicity profile of some of the bispecific antibodies. The animals were dosed with 0 mg/kg (control), 5 mg/kg (low dose), or 30 mg/kg (high dose) of anti-DLL4/anti-VEGF bispecific antibody (219R45-MB-21M18, 219R45-MB-21R83, or 219R45-MB-21R79) every 2 weeks via IV infusion. 3 males and 3 females were dosed in each group. After 15 weeks, mean body weights were lower in animals receiving the high dose of 219R45-MB-21R79 than in animals that received the high dose of either […] or 219R45-MB-21R83. In addition, mean serum albumin levels were lower in animals that received 219R45-MB-21R79 than in those that received either […] or 219R45-MB-21R83.

VEGF and DLL4 = VEGF and DLL4 (Homo sapiens, UniProt P15692+Q9NR61); assay: Bispecific antibody ELISA; format: binding; set-up: purchased ATGEN, South Korea
Experimental: FIG. 7. Bispecific antibody ELISA. Bispecific antibodies 219R45-MB-21M18, 219R45-MB-21R79, 219R45-MB-21R75, and 219R45-MB-21R83 were diluted in blocking buffer (1× PBS, 0.1% gelatin, 0.1% Polysorbate-20, pH 7.4) containing 2 μg/ml biotin-DLL4-hFc. The antibodies were serially diluted 3-fold from 500 ng/ml to 0.008 ng/ml. The antibody samples were incubated for 2 hours in blocking buffer containing the biotin-DLL4-hFc. After incubation, the antibody samples were transferred to a VEGF-coated assay plate (100 ul/well) and incubated for 2 hours. Streptavidin-HRP was added to each well and incubated for 1 hr. TMB substrate was added to the wells with a 10 minute color development and the reaction was stopped with 2M sulfuric acid. Absorbance was read at 450-650 nm and the data analyzed using the 4-parameter fit within the Softmax Pro analysis program.
VEGF (ATGEN, South Korea) was coated onto Nunc maxisorb plates at 2 ug/ml (100 μl/well) and incubated overnight at 2-8° C. Bispecific antibodies 219R45-MB-21M18, 219R45-MB-21R79, 219R45-MB-21R75, and 219R45-MB-21R83 were diluted in blocking buffer (1× PBS, 0.1% gelatin, 0.1% Polysorbate-20, pH 7.4) containing 2 μg/ml biotin-DLL4-hFc. […] Absorbance was read at 450-650 nm and the data analyzed using the 4-parameter fit within the Softmax Pro analysis program (Molecular Devices, Sunnyvale, Calif.).

xenograft tumor models = details: Hoey et al., 2009; U.S. Pat. No. 7,750,124; cited from earlier work

Sequence of human DLL4-Fc (Q9NR61 27-522 limits assumed): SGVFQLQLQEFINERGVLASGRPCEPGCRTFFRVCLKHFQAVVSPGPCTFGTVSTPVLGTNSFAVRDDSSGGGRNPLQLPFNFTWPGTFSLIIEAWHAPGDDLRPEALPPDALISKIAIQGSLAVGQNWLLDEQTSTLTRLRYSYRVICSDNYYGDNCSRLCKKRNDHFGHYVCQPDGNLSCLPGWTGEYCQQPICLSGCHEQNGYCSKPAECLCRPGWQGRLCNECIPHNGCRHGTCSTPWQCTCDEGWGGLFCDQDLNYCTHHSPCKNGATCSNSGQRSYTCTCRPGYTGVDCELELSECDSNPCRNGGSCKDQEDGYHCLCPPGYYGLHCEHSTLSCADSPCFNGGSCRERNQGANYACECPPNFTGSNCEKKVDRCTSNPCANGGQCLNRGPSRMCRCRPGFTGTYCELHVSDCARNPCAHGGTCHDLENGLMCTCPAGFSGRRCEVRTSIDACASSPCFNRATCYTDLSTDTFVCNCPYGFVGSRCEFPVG

B1: 219R45-MB-21R79: anti-VEGF/anti-DLL4 monovalent/bispecific antibody, heavy chains SEQ ID NO:7 and 6, light chains SEQ ID NO:8 (antibody)
heavy 1: QVQLVQSGAEVKKPGASVKVSCKASGYTFTNYWMHWVRQAPGQGLEWMGDINPSNGRTSYKEKFKRRVTLSVDKSSSTAYMELSSLRSEDTAVYFCTIHYDDKYYPLMDYWGQGTLVTVSSASTKGPSVFPLAPCSRSTSESTAALGCLVKDYFPEPVTVSWNSGALTSGVHTFPAVLQSSGLYSLSSVVTVPSSNFGTQTYTCNVDHKPSNTKVDKTVERKCCVECPPCPAPPVAGPSVFLFPPKPKDTLMISRTPEVTCVVVDVSHEDPEVQFNWYVDGVEVHNAKTKPREEQFNSTFRVVSVLTVVHQDWLNGKEYKCKVSNKGLPAPIEKTISKTKGQPREPQVYTLPPSREKMTKNQVSLTCLVKGFYPSDIAVEWESNGQPENNYKTTPPMLKSDGSFFLYSKLTVDKSRWQQGNVFSCSVMHEALHNHYTQKSLSLSPGK
heavy 2: QVQLVQSGAEVKKPGASVKISCKASGYSFTAYYIHWVKQAPGQGLEWIGYIANYNRATNYNQKFKGRVTFTTDTSTSTAYMELRSLRSDDTAVYYCARDYDYDVGMDYWGQGTLVTVSSASTKGPSVFPLAPCSRSTSESTAALGCLVKDYFPEPVTVSWNSGALTSGVHTFPAVLQSSGLYSLSSVVTVPSSNFGTQTYTCNVDHKPSNTKVDKTVERKCCVECPPCPAPPVAGPSVFLFPPKPKDTLMISRTPEVTCVVVDVSHEDPEVQFNWYVDGVEVHNAKTKPREEQFNSTFRVVSVLTVVHQDWLNGKEYKCKVSNKGLPAPIEKTISKTKGQPREPQVYTLPPSREEMTKNQVSLTCLVEGFYPSDIAVEWESNGQPENNYKTTPPMLDSDGSFFLYSELTVDKSRWQQGNVFSCSVMHEALHNHYTQKSLSLSPGK
light: DIVMTQSPDSLAVSLGERATISCRASESVDNYGISFMKWFQQKPGQPPKLLIYAASNQGSGVPDRFSGSGSGTDFTLTISSLQAEDVAVYYCQQSKEVPWTFGGGTKVEIKRTVAAPSVIFPPSDEQLKSGTASVVCLLNNFYPREAKVQWKVDNALQSGNSQESVTEQDSKDSTYSLSSTLTLSKADYEKHKVYACEVTHQGLSSPVTKSFNRGEC
modifications: 21R79 Heavy chain without predicted signal sequence; Light chain without predicted signal sequence
Q: Which “stronger binding to human DLL4 than 219R45-MB-21M18” value (human DLL4-Fc) does the source give for B1 here?
A: approximately 30 fold

Q: And the “mean serum albumin levels” value ([1]; every 2 weeks IV infusion)?
A: lower

Q: What about the mean body weights ([1]; high dose 30 mg/kg every 2 weeks IV infusion) of the same molecule?
A: lower

Q: What about the “more potent than 219R45-MB-21M18 in bispecific ELISA” value (VEGF and DLL4) of the same molecule?
A: about 7 fold

B2: 21M18: anti-DLL4 antibody, parental antibody (Hoey et al., 2009; U.S. Pat. No. 7,750,124) (antibody, V domains shown)
VH: QVQLVQSGAEVKKPGASVKISCKASGYSFTAYYIHWVKQAPGQGLEWIGYISSYNGATNYNQKFKGRVTFTTDTSTSTAYMELRSLRSDDTAVYYCARDYDYDVGMDYWGQGTLVTVSS
VL: DIVMTQSPDSLAVSLGERATISCRASESVDNYGISFMKWFQQKPGQPPKLLIYAASNQGSGVPDRFSGSGSGTDFTLTISSLQAEDVAVYYCQQSKEVPWTFGGGTKVEIK
Q: With B2 as the molecule, how does the “frequency of cancer stem cells in xenograft tumor models” value (xenograft tumor models) read?
A: reduce the frequency of cancer stem cells

Q: And the “tumor growth in xenograft tumor models” value (xenograft tumor models)?
A: inhibit tumor growth

Reference: patent US11512128B2, “VEGF/DLL4 binding agents and uses thereof” (MEREO BIOPHARMA 5, INC., priority 2011, dated 2022)
